Reference: patent US20250381223A1 (UTC THERAPEUTICS SHANGHAI, published 2025)
Changes are numbered by the printed parent chain. Values joined by “and” are separate entries in the source; they are usually repeats but may differ in a detail not shown here. Identical values can stand only once.

How the values were obtained:
[1] = target: T1, CD123-Fc recombinant protein (human, UniProt P26951 19-305); experiment: flow cytometry of T cells electroporated with CAR mRNA, stained with CD123-Fc + PE-anti-hIgG-Fc
T1 construct: construct not described; not shown: Fc part
T1 sequence (looked up): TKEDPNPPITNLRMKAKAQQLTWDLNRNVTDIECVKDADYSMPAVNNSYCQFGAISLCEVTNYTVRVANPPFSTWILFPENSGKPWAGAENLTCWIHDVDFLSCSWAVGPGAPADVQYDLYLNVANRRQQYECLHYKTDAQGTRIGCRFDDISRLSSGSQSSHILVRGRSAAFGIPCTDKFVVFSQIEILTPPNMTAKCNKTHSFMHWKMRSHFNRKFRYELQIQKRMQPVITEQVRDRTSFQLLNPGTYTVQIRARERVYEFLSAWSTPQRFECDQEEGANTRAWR
Method: (§1) The CD123 CAR mRNAs obtained in Example 35 above were each introduced into T cells by electroporation according to the following procedures: T cells were collected, washed with the Opti-MEM medium, and resuspended at 1×10e⁷/mL with the Opti-MEM medium; 10 μg of RNA and 100 μL of T cells were aliquoted, mixed well, and electroporated under the following parameters (BTX machine): 500 V, 0.7 ms; the cells were then transferred to a pre-warmed medium and cultured at 37° C. The binding of CD123 CART cells to the CD123-Fc recombinant protein was detected by FACS staining. […] Empty vector (Mock) was a control T cell without CAR molecule. A549 tumor cells were electroporated with different amounts of CD123 mRNA. The electroporation procedure was the same as described above, and only the parameters were changed, with the parameters 300 V, 0.5 ms used. CD123 expression in A549 tumor cells was detected by FACS staining of isotype or anti-CD123 antibodies and A549 cells electroporated with different amounts of CD123 mRNA. […] The cytotoxicity of CD123 CART cells against tumor cells was detected in an in vitro cytotoxicity assay. Tumor cells expressing EGFP or EGFP-A549 cells electroporated with different amounts of tumor antigen were seeded at 3000 cells/100 μL/well into a flat-bottom 96-well plate; CART cells were diluted to a proper concentration and seeded to the 100 μL/well tumor cells according to different E/T ratios (e.g., 10:1, 3:1, or 1:1), and the co-culture plate was placed into the IncuCyte S3 machine and scanning parameters were set. After scanning for 3 days, the total green object integrated intensity (GCU×μm²/well) was analyzed to calculate the killing efficiency.

[2] = target: T1, CD123-Fc recombinant protein; experiment: flow cytometry of T cells electroporated with CAR mRNA, stained with CD123-Fc + PE-anti-hIgG-Fc; Mock 0.36
Method: as §1

[3] = target: T2, Meso-biotin; experiment: flow cytometry, T cells with diabody mRNA only, Meso-biotin + PE-Streptavidin; E1 0.29
T2 construct: Meso-Fc and PE-anti-Fc for this staining

[4] = target: T3, CD40-Fc ( for this staining reagent …, UniProt P25942); experiment: flow cytometry, T cells with 10 µg diabody mRNA only, CD40-Fc + PE-anti-Fc; E1 (no mRNA) 0.48
T3 construct: soluble Fc fusion; Staining reagent, detected with PE-anti-Fc

[5] = target: T3, CD40-Fc; experiment: flow cytometry, T cells with diabody mRNA and M12 CAR mRNA, CD40-Fc + PE-anti-Fc; E1 0.48, E2 (M12 only) 0.77
[6] = target: T4, recombinant human CD40-His antigen protein (human, UniProt P25942 21-193); experiment: ELISA; plate coated with CD40-His 2 µg/mL; IgG1, anti-human IgG-Fc (HRP)
T4 construct: Bought protein; also called recombinant CD40-His protein; CD40 antigen; not shown: His tag
Method: Therefore, the affinity of the CD40 antibody (in the form of a human classical monoclonal antibody IgG1) was detected by in vitro binding ELISA. The brief experimental procedures were as follows: [0569] (1) Construction of antibody expression plasmid: an antibody VH region was subcloned into a pEF vector containing a human CH1-Fc antibody fragment, and an antibody VL region was subcloned into a pEF vector containing a human CL antibody fragment. [0570] (2) Antibody expression: 33 μg of an antibody heavy chain expression plasmid and 67 μg of an antibody light chain expression plasmid were co-transfected into 293F suspension cells by PEI. After 4 days of culture, the supernatant was collected by centrifugation. [0571] (3) Antibody purification: the protein supernatant and protein A purification medium were incubated on ice for 2 h, and then the supernatant and the purification medium were separated by a gravity column. The purification medium was rinsed thoroughly with 100 mL of pre-cooled PBS to remove impure proteins, and finally, the target protein was eluted from the purification medium with 5-10 mL of 0.1 M Glycine-HCl (pH 2.7), and 1/10 volume of 1 M Tris-HCl (pH 9.0) was immediately added to neutralize the antibody. […] After the protein concentration was measured with A280, the antibody was packaged and cryopreserved at −80° C. […]

[7] = target: T1, CD123-Fc recombinant protein; experiment: flow cytometry of T cells electroporated with CAR mRNA, stained with CD123-Fc + PE-anti-hIgG-Fc; Mock 1.68
Method: as §1

[8] = target: T4, recombinant human CD40-His antigen …; experiment: ELISA; plate coated with CD40-His 2 µg/mL; HRP-anti-hFc
Method: The binding activities of the affinity-matured antibodies for antigen CD40 were detected by ELISA. The experimental procedures were as follows: [0637] 1. 50 μL of recombinant CD40-His protein at a concentration of 2 μg/mL was added to each well of an ELISA plate, and the plate was incubated at 4° C. overnight. […] 2. The next day, the ELISA plate was washed 3 times with PBST (containing 0.05% Tween-20). [0639] 3. 250 μL of 5% skim milk powder (dissolved in PBS) was added to each well of the ELISA plate, and the plate was incubated at room temperature for 2 h. [0640] 4. The plate was washed 3 times with PBST, antibodies with different dilution ratios were added to the ELISA plate at 50 μL/well, and the plate was incubated at room temperature for 60 min. [0641] 5. The plate was washed 3 times with PBST, 50 μL of HRP-anti-hFc antibody was added to each well, and the plate was incubated at room temperature for 60 min. [0642] 6. The plate was washed 3 times with PBST, 50 μL of TMB was added to each well, and after color development at room temperature, 50 μL of 2 M HCl was added to each well to stop the reaction. The plate was read at 450 nm.

B1: C22 (scFv)
scFv: SYELTQPPSVSVAPGKTARITCGANNIETKSVHWYRQRPGQAPILVIYYDSDRPSGIPERFSGSTSGDTATLTISRVEAEDEADYYCQVWDSTSDHVVFGEGTKLTVLGGGGSGGGGSGGGGSEVQLVESGAEVKKPGESLKISCKGSGYSFTSYWIGWVRQMPGKGLEWMGIINPSGGSTSYAQKFQGRVTMTRDTSTSTVYMELSSLRSEDTAVYYCARVVTPYYPLTNWGQGTLVTVSS
notes: also called anti-CD123 scFv-C22
binding result [1]: no binding
percent of cells in the CD123-Fc positive gate [2]: 0.53%

B2: 5.25 (bispecific antibody)
single chain, scFv-G4S-scFv: QVQLVQSGAEVKKPGSSVKVSCKASGGTFSSYAISWVRQAPGQGLEWMGMINPSGGTTSYAQKFQGRVTMTRDTSTSTVYMELSSLRPEDTAVYYCARGFRMDQWGQGTLVTVSSGGGGSGGGGSGGGGSQSALTQPPSASGSPGQSVTISCTGTSSDVGAYNFVSWYQQHPGNAPKLIIYDVRKRPSGIPDRFSASKSGNTASLTVSGLQADDEADYYCSSYAGNNRLVFGGGTKLTVLGGGGSQVKLQESGPGLVKPSETLSITCTVSGFSLSDYGVHWVRQSPGKGLEWLGVIWAGGGTNYNSALMSRKTISKDNSKSQVFLKMSSLTAADTAVYYCARDKGYSYYYSMDYWGQGTTVTVSSGGGGSGGGGSGGGGSDIQLTQSPSSLSVSVGDRVTISCRASESVEYYVTSLMQWYQQKPGQAPKLLIFAASNVESGVPSRFSGSGSGTNFTLTISSVQEEDFAMYFCQQSRKVPYTFGGGTKLEIK
percent of cells in the gate [3]: 2.36%
percent of cells in the gate [4]: 92.7%
percent of cells in the gate [5]: 92.9%

B3: 5.36 (bispecific antibody)
single chain, scFv-G4S-scFv: B2 single chain, scFv-G4S-scFv with E10Q, S188I, R228N
percent of cells in the gate [3]: 1.14%
percent of cells in the gate [4]: 88%
percent of cells in the gate [5]: 94.2%

B4: 5.28 (bispecific antibody)
single chain, scFv-G4S-scFv: B2 single chain, scFv-G4S-scFv with V183T, R228N
percent of cells in the gate [3]: 0.94%
percent of cells in the gate [4]: 85.8%
percent of cells in the gate [5]: 87.4%

B5: F2.103 (antibody, V domains shown)
VH: EVQLVESGGGLVQPGGSLRLSCAVSGFTFSTYWMHWVRQAPGKGLVWVSRINSDGSSTTYADSVKGRFTISRDNAKNTLYLQMNSLRAEDTAVYYCARDRVLWIGELSYYGMDVWGQGTTVTVSS
VL: DIQMTQSPSTLSASVGDRVTITCRASQSISNWLAWYQQKPGKAPKLLLYKASGLESGVPSRFSGSGSGTEFTLTINSLQPDDFATYYCQQSNSYSWTFGHGTKVEIKR
EC50 [6]: 0.0448 µg/mL and 305 nM

B6: C12 (scFv)
scFv: QSVLTQPPSVSAAPGQKVTISCSGSSSNIGNNYVSWYQQLPGTAPKLLIFDDNKRPSGIPDRFSGSLSGTSASLAISGLQSEDDADYYCSAWDDSLSGYVFGTGTKLTVLGGGGSGGGGSGGGGSQVQLVQSGGGLVKPGGSLRLSCAASGFTFSSYNINWVRQAPGKGPEWVSSISSSSSYRYYADSVKGRFTISRDNAKNSLYLQMNSLRAEDTAVYYCVRDKTGGYGTAFDYWGQGTLVTVSS
notes: also called anti-CD123 scFv-C12
binding result [1]: no binding
percent of cells in the CD123-Fc positive gate [7]: 1.37%

B7: 4052.12 (antibody, V domains shown)
VH: QVQLVQSGAEVKKPGSSVKVSCKASGGTFSSYAVSWVRQAPGQGLEWMGMINPSGGTTSYAQKFQGRVTMTRDTSTSTVYMELSSLRPEDTAVYYCARGFRMDQWGQGTLVTVSS
VL: QSALTQPPSASGSPGQSVTISCTGTSSDVGAYNFVSWYQQHPGNAPKLIIYDVRKRPRGIPDRFSASKSGNTASLTVSGLQADDEADYYCSSYAGNNNLVFGGGTKLTVL
EC50 [8]: 0.124 µg/mL

B8: 4052.25 (antibody, V domains shown)
VH: B7 VH with V34I
VL: B7 VL with R58S, N98R
EC50 [8]: 0.111 µg/mL

B9: 4052.36 (antibody, V domains shown)
VH: B7 VH with E10Q, V34I
VL: B7 VL with R58I
EC50 [8]: 0.134 µg/mL

B10: 4052.28 (antibody, V domains shown)
VH: B7 VH with V34I
VL: B7 VL with V53T, R58S
EC50 [8]: 0.116 µg/mL

B11: C31 (scFv)
scFv: QPVLTQPPSMSGTPGQRVTISCSGGNSNIGDNSVSWYQQLPGTAPKLLIYNNNQRPLGVPDRFSGSKSGTSASLAIRGLQSEDEAHYYCSSWDDSLEGAQFGGGTKVTVLGGGGSGGGGSGGGGSEVQLVESGGGLVKPGGSLRLSCAASGFTFSDYYMSWIRQAPGKGLEWVSYISSSGSTIYYADSVKGRFTISRDNAKNSLYLQMNSLRAEDTAVYYCARGHQYYDFWSGYSNWFDPWGQGTLVTVSS
notes: also called anti-CD123 scFv-C31
binding result [1]: no binding
percent of cells in the CD123-Fc positive gate [2]: 0.64%
